Laboratory results from paper PMC4968818.

Target: voltage-dependent anion channel (VDAC) protein (human (endogenous in T47D)) (UniProt P21796)
Test: co-IP; VDAC immunoprecipitated from cell lysate (anti-VDAC1/2/3, protein G agarose; lysate first blocked with 10 uM VDAC-binding membrane domain peptide), beads washed with PBS and incubated at RT for 50 min with recombinant HK at pH 7.8; western blots for HK-1, HK-2 and VDAC; band intensities normalized by VDAC bands

amount co-precipitated at pH 7.8, percent of that at pH 6.2 [%] | Binder
213 | recombinant hexokinase 2 (HK-2) (enzyme) MIASHLLAYFFTELNHDQVQKVDQYLYHMRLSDETLLEISKRFRKEMEKGLGATTHPTAAVKMLPTFVRSTPDGTEHGEFLALDLGGTNFRVLWVKVTDNGLQKVEMENQIYAIPEDIMRGSGTQLFDHIAECLANFMDKLQIKDKKLPLGFTFSFPCHQTKLDESFLVSWTKGFKSSGVEGRDVVALIRKAIQRRGDFDIDIVAVVNDTVGTMMTCGYDDHNCEIGLIVGTGSNACYMEEMRHIDMVEGDEGRMCINMEWGAFGDDGSLNDIRTEFDQEIDMGSLNPGKQLFEKMISGMYMGELVRLILVKMAKEELLFGGKLSPELLNTGRFETKDISDIEGEKDGIRKAREVLMRLGLDPTQEDCVATHRICQIVSTRSASLCAATLAAVLQRIKENKGEERLRSTIGVDGSVYKKHPHFAKRLHKTVRRLVPGCDVRFLRSEDGSGKGAAMVTAVAYRLADQHRARQKTLEHLQLSHDQLLEVKRRMKVEMERGLSKETHASAPVKMLPTYVCATPDGTEKGDFLALDLGGTNFRVLLVRVRNGKWGGVEMHNKIYAIPQEVMHGTGDELFDHIVQCIADFLEYMGMKGVSLPLGFTFSFPCQQNSLDESILLKWTKGFKASGCEGEDVVTLLKEAIHRREEFDLDVVAVVNDTVGTMMTCGFEDPHCEVGLIVGTGSNACYMEEMRNVELVEGEEGRMCVNMEWGAFGDNGCLDDFRTEFDVAVDELSLNPGKQRFEKMISGMYLGEIVRNILIDFTKRGLLFRGRISERLKTRGIFETKFLSQIESDCLALLQVRAILQHLGLESTCDDSIIVKEVCTVVARRAAQLCGAGMAAVVDRIRENRGLDALKVTVGVDGTLYKLHPHFAKVMHETVKDLAPKCDVSFLQSEDGSGKGAALITAVACRIREAGQR
143 | recombinant hexokinase 1 (HK-1) (enzyme) MIAAQLLAYYFTELKDDQVKKIDKYLYAMRLSDETLIDIMTRFRKEMKNGLSRDFNPTATVKMLPTFVRSIPDGSEKGDFIALDLGGSSFRILRVQVNHEKNQNVHMESEVYDTPENIVHGSGSQLFDHVAECLGDFMEKRKIKDKKLPVGFTFSFPCQQSKIDEAILITWTKRFKASGVEGADVVKLLNKAIKKRGDYDANIVAVVNDTVGTMMTCGYDDQHCEVGLIIGTGTNACYMEELRHIDLVEGDEGRMCINTEWGAFGDDGSLEDIRTEFDREIDRGSLNPGKQLFEKMVSGMYLGELVRLILVKMAKEGLLFEGRITPELLTRGKFNTSDVSAIEKNKEGLHNAKEILTRLGVEPSDDDCVSVQHVCTIVSFRSANLVAATLGAILNRLRDNKGTPRLRTTVGVDGSLYKTHPQYSRRFHKTLRRLVPDSDVRFLLSESGSGKGAAMVTAVAYRLAEQHRQIEETLAHFHLTKDMLLEVKKRMRAEMELGLRKQTHNNAVVKMLPSFVRRTPDGTENGDFLALDLGGTNFRVLLVKIRSGKKRTVEMHNKIYAIPIEIMQGTGEELFDHIVSCISDFLDYMGIKGPRMPLGFTFSFPCQQTSLDAGILITWTKGFKATDCVGHDVVTLLRDAIKRREEFDLDVVAVVNDTVGTMMTCAYEEPTCEVGLIVGTGSNACYMEEMKNVEMVEGDQGQMCINMEWGAFGDNGCLDDIRTHYDRLVDEYSLNAGKQRYEKMISGMYLGEIVRNILIDFTKKGFLFRGQISETLKTRGIFETKFLSQIESDRLALLQVRAILQQLGLNSTCDDSILVKTVCGVVSRRAAQLCGAGMAAVVDKIRENRGLDRLNVTVGVDGTLYKLHPHFSRIMHQTVKELSPKCNVSFLLSEDGSGKGAALITAVGVRLRTEASS
